Data published in the array DNA melting data of Ke et al..

How the values were obtained:
[1] = melting temperature; UV melt of duplexes
[2] = melting temperature; melt of duplexes; conditions: sodium 0.0675 M; strand 1 µM

ATATATAGCTATATAT+ATATATAGCTATATAT ((((((((((((((((+))))))))))))))))
Tm ([1]; sodium 0.12 M, strand 5 µM): 39.1 °C

ATATATATAGCTATATATAT+ATATATATAGCTATATATAT ((((((((((((((((((((+))))))))))))))))))))
Tm ([1]; sodium 0.12 M, strand 5 µM): 44.8 °C

ATATATATAGCTTTTTTTTT+AAAAAAAAAGCTATATATAT ((((((((((((((((((((+))))))))))))))))))))
Tm ([1]; sodium 0.12 M, strand 6 µM): 44.3 °C

ATTGATATCCTTTTCTATTCATCTTTCATT+AATGAAAGATGAATAGAAAAGGATATCAAT ((((((((((((((((((((((((((((((+))))))))))))))))))))))))))))))
Tm ([1]; sodium 0.07 M, strand 2 µM): 53.5 °C
Tm ([1]; sodium 0.12 M, strand 2 µM): 58.3 °C
Tm ([1]; sodium 0.22 M, strand 2 µM): 62.3 °C
Tm ([1]; sodium 0.62 M, strand 2 µM): 68.6 °C
Tm ([1]; sodium 1.02 M, strand 2 µM): 70.4 °C

CAACTTGATATTAATA+TATTAATATCAAGTTG ((((((((((((((((+))))))))))))))))
Tm ([1]; sodium 1 M, strand 18 µM): 52 °C

CAGCAGCAGCAGCAGCAGCAGCAGCAGCAG+CTGCTGCTGCTGCTGCTGCTGCTGCTGCTG ((((((((((((((((((((((((((((((+))))))))))))))))))))))))))))))
Tm ([1]; sodium 0.15 M, strand 0.0001 M): 83 °C

CATATTGGCCAATATG+CATATTGGCCAATATG ((((((((((((((((+))))))))))))))))
Tm ([1]; sodium 1 M, strand 0.0001 M): 65.3 °C

CCACTATACCATCTATGTAC+GTACATAGATGGTATAGTGG ((((((((((((((((((((+))))))))))))))))))))
Tm ([1]; sodium 0.07 M, strand 2 µM): 51.1 °C
Tm ([1]; sodium 0.12 M, strand 2 µM): 54.6 °C
Tm ([1]; sodium 0.22 M, strand 2 µM): 58.4 °C
Tm ([1]; sodium 0.62 M, strand 2 µM): 62.2 °C
Tm ([1]; sodium 1.02 M, strand 2 µM): 64.4 °C

CGACGTGCTTTATGTGCTG+CAGCACATAGGGCACGTCG ((((((((..(((((((((+)))))))))..))))))))
Tm [2]: 51.1 °C

CGACGTGCTTTATGTGCTG+CAGCACATCATGCACGTCG ((((((((.(.((((((((+)))))))).).))))))))
Tm [2]: 49.2 °C

CGACGTGCTTTATGTGCTG+CAGCACATCCGGCACGTCG ((((((((...((((((((+))))))))...))))))))
Tm [2]: 48.2 °C

CGACGTGCTTTATGTGCTG+CAGCACATCGGGCACGTCG ((((((((...((((((((+))))))))...))))))))
Tm [2]: 48.3 °C

CGACGTGCTTTATGTGCTG+CAGCACATCGTGCACGTCG ((((((((...((((((((+))))))))...))))))))
Tm [2]: 42.3 °C

CGACGTGCTTTATGTGCTG+CAGCACATGAAGCACGTCG ((((((((((.((((((((+)))))))).))))))))))
Tm [2]: 57.3 °C

CGACGTGCTTTATGTGCTG+CAGCACATGATGCACGTCG ((((((((.(.((((((((+)))))))).).))))))))
Tm [2]: 52.1 °C

CGACGTGCTTTATGTGCTG+CAGCACATGCAGCACGTCG (((((((((..((((((((+))))))))..)))))))))
Tm [2]: 50.9 °C

CGACGTGCTTTATGTGCTG+CAGCACATGCCGCACGTCG ((((((((...((((((((+))))))))...))))))))
Tm [2]: 46.7 °C

CGACGTGCTTTATGTGCTG+CAGCACATGGCGCACGTCG ((((((((...((((((((+))))))))...))))))))
Tm [2]: 47.2 °C

CGACGTGCTTTATGTGCTG+CAGCACATGGTGCACGTCG ((((((((...((((((((+))))))))...))))))))
Tm [2]: 45.6 °C

CGACGTGCTTTATGTGCTG+CAGCACATTGAGCACGTCG (((((((((..((((((((+))))))))..)))))))))
Tm [2]: 52 °C

CGACGTGCTTTATGTGCTG+CAGCACATTGGGCACGTCG ((((((((...((((((((+))))))))...))))))))
Tm [2]: 49.8 °C

CGACGTGCTTTATGTGCTG+CAGCACATTTGGCACGTCG ((((((((...((((((((+))))))))...))))))))
Tm [2]: 50.1 °C

CGAGCTTATCCCTATCCCTC+GAGGGATAGGGATAAGCTCG ((((((((((((((((((((+))))))))))))))))))))
Tm ([1]; sodium 0.07 M, strand 2 µM): 56 °C
Tm ([1]; sodium 0.12 M, strand 2 µM): 60.2 °C
Tm ([1]; sodium 0.22 M, strand 2 µM): 64.1 °C
Tm ([1]; sodium 0.62 M, strand 2 µM): 68.5 °C
Tm ([1]; sodium 1.02 M, strand 2 µM): 70.3 °C

CGCAAAAAAAAAACGC+GCGTTTTTTTTTTGCG ((((((((((((((((+))))))))))))))))
Tm ([1]; sodium 0.1 M, strand 4 µM): 54.1 °C

CGCCGCTGCCGACTGGAGGAGCGCGGGACG+CGTCCCGCGCTCCTCCAGTCGGCAGCGGCG ((((((((((((((((((((((((((((((+))))))))))))))))))))))))))))))
Tm ([1]; sodium 0.07 M, strand 2 µM): 77.8 °C
Tm ([1]; sodium 0.12 M, strand 2 µM): 81.6 °C
Tm ([1]; sodium 0.22 M, strand 2 µM): 84.6 °C
Tm ([1]; sodium 0.62 M, strand 2 µM): 87.7 °C
Tm ([1]; sodium 1.02 M, strand 2 µM): 88.6 °C

CGCGCCACGTGTGATCTACAGCCGTTCGGC+GCCGAACGGCTGTAGATCACACGTGGCGCG ((((((((((((((((((((((((((((((+))))))))))))))))))))))))))))))
Tm ([1]; sodium 0.07 M, strand 2 µM): 72.7 °C
Tm ([1]; sodium 0.12 M, strand 2 µM): 76.3 °C
Tm ([1]; sodium 0.22 M, strand 2 µM): 79.5 °C
Tm ([1]; sodium 0.62 M, strand 2 µM): 83.4 °C
Tm ([1]; sodium 1.02 M, strand 2 µM): 84.5 °C

CGCGCGCGACTGACTG+CAGTCAGTCGCGCGCG ((((((((((((((((+))))))))))))))))
Tm ([1]; sodium 0.12 M, strand 44 µM): 69.4 °C

CGGGACCAACTAAAGGAAAT+ATTTCCTTTAGTTGGTCCCG ((((((((((((((((((((+))))))))))))))))))))
Tm ([1]; sodium 0.07 M, strand 2 µM): 53.7 °C
Tm ([1]; sodium 0.12 M, strand 2 µM): 57.7 °C
Tm ([1]; sodium 0.22 M, strand 2 µM): 61.7 °C
Tm ([1]; sodium 0.62 M, strand 2 µM): 66.7 °C
Tm ([1]; sodium 1.02 M, strand 2 µM): 68.5 °C

CTCAACTTGCGGTAAATAAATCGCTTAATC+GATTAAGCGATTTATTTACCGCAAGTTGAG ((((((((((((((((((((((((((((((+))))))))))))))))))))))))))))))
Tm ([1]; sodium 0.07 M, strand 2 µM): 60.9 °C
Tm ([1]; sodium 0.12 M, strand 2 µM): 64.8 °C
Tm ([1]; sodium 0.22 M, strand 2 µM): 68.7 °C
Tm ([1]; sodium 0.62 M, strand 2 µM): 74.4 °C
Tm ([1]; sodium 1.02 M, strand 2 µM): 75.5 °C

GACGACGACGACGACGACGACGACGACGAC+GTCGTCGTCGTCGTCGTCGTCGTCGTCGTC ((((((((((((((((((((((((((((((+))))))))))))))))))))))))))))))
Tm ([1]; sodium 0.15 M, strand 0.0001 M): 83 °C
